# Laboratory results taken from paper PMC4288178, “CRISPR RNA binding and DNA target recognition by purified Cascade complexes from Escherichia coli”.
# T1: Cascade+ (Cascade co-expressed with g8 crRNA) (Escherichia coli (K12; expressed in …, UniProt Q46901;P76632;Q46899;Q46898;Q46897 1-502;1-160;1-363;1-224;1-199)
# T1 sequence 1: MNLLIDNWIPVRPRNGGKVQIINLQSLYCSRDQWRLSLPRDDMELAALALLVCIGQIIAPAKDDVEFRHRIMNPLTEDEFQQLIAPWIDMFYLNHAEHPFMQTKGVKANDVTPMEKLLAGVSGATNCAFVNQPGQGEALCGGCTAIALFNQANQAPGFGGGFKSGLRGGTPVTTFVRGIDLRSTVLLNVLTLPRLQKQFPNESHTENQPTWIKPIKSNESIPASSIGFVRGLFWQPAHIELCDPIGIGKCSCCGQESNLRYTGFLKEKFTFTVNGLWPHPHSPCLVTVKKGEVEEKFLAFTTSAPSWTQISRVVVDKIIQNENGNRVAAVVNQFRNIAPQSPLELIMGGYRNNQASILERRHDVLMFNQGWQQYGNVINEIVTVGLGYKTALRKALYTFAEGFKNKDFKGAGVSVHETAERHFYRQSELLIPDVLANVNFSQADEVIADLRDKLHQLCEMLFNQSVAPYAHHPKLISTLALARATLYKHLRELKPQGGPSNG
# T1 sequence 2: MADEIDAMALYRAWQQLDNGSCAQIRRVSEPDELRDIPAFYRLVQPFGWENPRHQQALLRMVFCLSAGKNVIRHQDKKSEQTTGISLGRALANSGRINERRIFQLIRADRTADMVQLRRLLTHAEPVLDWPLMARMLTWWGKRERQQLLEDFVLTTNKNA
# T1 sequence 3: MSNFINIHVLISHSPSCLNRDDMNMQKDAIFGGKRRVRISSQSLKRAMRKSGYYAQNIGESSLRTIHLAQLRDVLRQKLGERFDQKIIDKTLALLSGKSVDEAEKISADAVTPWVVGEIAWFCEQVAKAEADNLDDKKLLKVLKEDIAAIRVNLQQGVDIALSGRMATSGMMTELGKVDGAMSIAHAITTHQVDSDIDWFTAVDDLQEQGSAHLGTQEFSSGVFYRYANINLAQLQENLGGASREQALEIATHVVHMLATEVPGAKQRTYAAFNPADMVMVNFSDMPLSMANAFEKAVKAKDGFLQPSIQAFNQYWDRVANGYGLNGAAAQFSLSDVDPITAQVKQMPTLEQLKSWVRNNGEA
# T1 sequence 4: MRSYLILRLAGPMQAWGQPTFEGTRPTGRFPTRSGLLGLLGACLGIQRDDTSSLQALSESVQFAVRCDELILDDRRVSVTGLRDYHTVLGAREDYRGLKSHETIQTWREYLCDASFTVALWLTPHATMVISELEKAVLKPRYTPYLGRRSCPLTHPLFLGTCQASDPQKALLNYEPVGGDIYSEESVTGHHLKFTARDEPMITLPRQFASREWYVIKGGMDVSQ
# T1 sequence 5: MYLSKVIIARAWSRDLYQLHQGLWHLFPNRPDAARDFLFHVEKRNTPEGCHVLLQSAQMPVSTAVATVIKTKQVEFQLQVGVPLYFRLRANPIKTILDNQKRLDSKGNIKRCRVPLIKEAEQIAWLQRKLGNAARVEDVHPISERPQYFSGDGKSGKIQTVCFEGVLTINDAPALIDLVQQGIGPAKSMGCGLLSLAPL
# T2: Cascade- (crRNA-free Cse1-Cse2-Cas7-Cas5-Cas6e) (Escherichia coli (K12; expressed in …, UniProt Q46901;P76632;Q46899;Q46898;Q46897 1-502;1-160;1-363;1-224;1-199)
# T2 sequence 1: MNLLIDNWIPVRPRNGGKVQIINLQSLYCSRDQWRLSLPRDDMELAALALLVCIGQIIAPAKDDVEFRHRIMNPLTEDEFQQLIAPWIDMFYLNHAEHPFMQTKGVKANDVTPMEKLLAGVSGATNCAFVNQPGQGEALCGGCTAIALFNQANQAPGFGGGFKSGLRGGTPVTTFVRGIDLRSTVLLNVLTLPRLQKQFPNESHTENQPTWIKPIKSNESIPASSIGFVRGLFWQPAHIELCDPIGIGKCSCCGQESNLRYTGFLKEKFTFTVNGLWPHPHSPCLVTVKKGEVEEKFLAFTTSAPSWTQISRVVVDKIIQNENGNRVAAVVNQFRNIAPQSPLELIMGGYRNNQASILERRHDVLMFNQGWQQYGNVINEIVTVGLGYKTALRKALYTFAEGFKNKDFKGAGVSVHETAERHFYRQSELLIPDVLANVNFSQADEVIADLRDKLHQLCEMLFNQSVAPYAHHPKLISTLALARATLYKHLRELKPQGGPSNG
# T2 sequence 2: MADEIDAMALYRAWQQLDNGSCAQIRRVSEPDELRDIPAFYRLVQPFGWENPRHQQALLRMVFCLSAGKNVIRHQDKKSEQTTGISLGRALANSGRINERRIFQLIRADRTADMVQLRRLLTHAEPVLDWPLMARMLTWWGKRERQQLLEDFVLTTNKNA
# T2 sequence 3: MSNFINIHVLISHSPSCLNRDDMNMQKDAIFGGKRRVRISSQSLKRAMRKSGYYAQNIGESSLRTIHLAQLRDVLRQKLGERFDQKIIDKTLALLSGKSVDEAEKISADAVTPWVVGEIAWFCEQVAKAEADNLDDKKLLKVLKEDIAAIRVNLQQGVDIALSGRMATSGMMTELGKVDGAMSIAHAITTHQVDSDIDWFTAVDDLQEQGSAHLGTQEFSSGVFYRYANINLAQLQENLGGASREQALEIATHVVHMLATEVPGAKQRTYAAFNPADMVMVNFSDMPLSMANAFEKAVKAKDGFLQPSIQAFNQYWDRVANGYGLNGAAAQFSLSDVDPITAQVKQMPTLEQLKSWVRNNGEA
# T2 sequence 4: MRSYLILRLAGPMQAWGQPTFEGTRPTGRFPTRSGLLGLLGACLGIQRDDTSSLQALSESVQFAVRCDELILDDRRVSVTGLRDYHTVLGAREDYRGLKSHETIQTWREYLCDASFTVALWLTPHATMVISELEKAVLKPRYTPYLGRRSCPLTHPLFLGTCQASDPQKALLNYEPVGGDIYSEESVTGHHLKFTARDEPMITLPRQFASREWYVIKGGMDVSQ
# T2 sequence 5: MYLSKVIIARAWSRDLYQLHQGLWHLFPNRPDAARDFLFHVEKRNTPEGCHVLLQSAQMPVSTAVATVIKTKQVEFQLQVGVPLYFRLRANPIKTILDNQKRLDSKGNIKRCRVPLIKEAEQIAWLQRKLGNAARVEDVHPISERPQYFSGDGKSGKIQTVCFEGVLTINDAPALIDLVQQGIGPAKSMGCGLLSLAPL
# B1: g8 crRNA + g8 ssDNA (mixed)
# RNA: AUAAACCGCUGUCUUUCGCUGCUGAGGGUGACGAUCCGCCGAGUUCCCCGCGCCAGCGGGG
# DNA: CAGGGAGTTAAAGGCCGCTTTTGCGGGATCGTCACCCTCAGCAGCGAAAGACAGCATCGGAACGAGGGTAGCAACGGCT
# B2: crRNA7 (-8/+5) + g8 dsDNA (mixed)
# RNA: AUAAACCGCUGUCUUUCGCUGCUGAGGGUGACGAUCCGCCGAGUU
# DNA 1: CAGGGAGTTAAAGGCCGCTTTTGCGGGATCGTCACCCTCAGCAGCGAAAGACAGCATCGGAACGAGGGTAGCAACGGCT
# DNA 2: AGCCGTTGCTACCCTCGTTCCGATGCTGTCTTTCGCTGCTGAGGGTGACGATCCCGCAAAAGCGGCCTTTAACTCCCTG
# B3: crRNA1 (-8/+21) (structured_RNA)
# RNA: AUAAACCGCUGUCUUUCGCUGCUGAGGGUGACGAUCCGCCGAGUUCCCCGCGCCAGCGGGG
# modifications: 2',3'-cyclic phosphate at 3' end
# B4: g8 crRNA1 + g8 dsDNA (mixed)
# RNA: AUAAACCGCUGUCUUUCGCUGCUGAGGGUGACGAUCCGCCGAGUUCCCCGCGCCAGCGGGG
# DNA 1: CAGGGAGTTAAAGGCCGCTTTTGCGGGATCGTCACCCTCAGCAGCGAAAGACAGCATCGGAACGAGGGTAGCAACGGCT
# DNA 2: AGCCGTTGCTACCCTCGTTCCGATGCTGTCTTTCGCTGCTGAGGGTGACGATCCCGCAAAAGCGGCCTTTAACTCCCTG
# modifications: 2',3'-cyclic phosphate on crRNA
# B5: crRNA MS2 + MS2 dsDNA (mixed)
# RNA: AUAAACCGGCACCGACCCCUUUCUGGAGGUACAUAUUCAUGAGUUCCCCGCGCCAGCGGGG
# DNA 1: TGAGCCGGCGTCTGATAAAGGCACCGACCCCTTTCTGGAGGTACATATTCATATCAGGCTCCTTACAGGCAG
# DNA 2: CTGCCTGTAAGGAGCCTGATATGAATATGTACCTCCAGAAAGGGGTCGGTGCCTTTATCAGACGCCGGCTCA
# Assays:
# [1] = target: T1, Cascade+ (Cascade co-expressed with g8 …); assay: EMSA; EMSA: 20 mM Tris-HCl pH 8, 20 mM NaCl, 10 nM 32P probe, 30 min at 30 or 37 C, 6% native PAGE; loading 10 min at 30 C with crRNA (0.5 uM in Fig 3). Kd values are printed only in Fig 5A (not in the material); details: protein: recombinant; tags: N-terminal 6His on Cse1 (CasA); copies: 1;2;6;1;1; label: DNA 5'-32P; guide + target strand
# Cascade- (crRNA-free …) [2] = target: T2, Cascade- (crRNA-free …); assay: EMSA; loaded with crRNA1; EMSA: 20 mM Tris-HCl pH 8, 20 mM NaCl, 10 nM 32P probe, 30 min at 30 or 37 C, 6% native PAGE; loading 10 min at 30 C with crRNA (0.5 uM in Fig 3). Kd values are printed only in Fig 5A (not in the material); details: protein: recombinant, tags: N-terminal 6His on Cse1 (CasA), copies: 1;2;6;1;1, label: DNA 5'-32P
# Cascade- (crRNA-free …) [3] = target: T2, Cascade- (crRNA-free …); assay: EMSA; affinity slightly lower than crRNA1; EMSA: 20 mM Tris-HCl pH 8, 20 mM NaCl, 10 nM 32P probe, 30 min at 30 or 37 C, 6% native PAGE; loading 10 min at 30 C with crRNA (0.5 uM in Fig 3). Kd values are printed only in Fig 5A (not in the material); details: protein: recombinant, tags: N-terminal 6His on Cse1 (CasA), copies: 1;2;6;1;1
# Cascade- (crRNA-free …) [4] = target: T2, Cascade- (crRNA-free …); assay: EMSA; EMSA: 20 mM Tris-HCl pH 8, 20 mM NaCl, 10 nM 32P probe, 30 min at 30 or 37 C, 6% native PAGE; loading 10 min at 30 C with crRNA (0.5 uM in Fig 3). Kd values are printed only in Fig 5A (not in the material); details: protein: recombinant; tags: N-terminal 6His on Cse1 (CasA); copies: 1;2;6;1;1; label: 5'-32P; 3' handle hairpin
# [5] = target: T1, Cascade+ (Cascade co-expressed with g8 …); assay: EMSA; co-expressed g8 crRNA; EMSA: 20 mM Tris-HCl pH 8, 20 mM NaCl, 10 nM 32P probe, 30 min at 30 or 37 C, 6% native PAGE; loading 10 min at 30 C with crRNA (0.5 uM in Fig 3). Kd values are printed only in Fig 5A (not in the material); details: protein: recombinant; tags: N-terminal 6His on Cse1 (CasA); copies: 1;2;6;1;1; label: 5'-32P; 3' handle hairpin
# [6] = target: T1, Cascade+ (Cascade co-expressed with g8 …); assay: EMSA; co-expressed crRNA; EMSA: 20 mM Tris-HCl pH 8, 20 mM NaCl, 10 nM 32P probe, 30 min at 30 or 37 C, 6% native PAGE; loading 10 min at 30 C with crRNA (0.5 uM in Fig 3). Kd values are printed only in Fig 5A (not in the material); details: protein: recombinant; tags: N-terminal 6His on Cse1 (CasA); copies: 1;2;6;1;1; label: DNA 5'-32P; guide + blunt duplex
# Cascade- (crRNA-free …) [7] = target: T2, Cascade- (crRNA-free …); assay: EMSA; loaded with crRNA MS2; EMSA: 20 mM Tris-HCl pH 8, 20 mM NaCl, 10 nM 32P probe, 30 min at 30 or 37 C, 6% native PAGE; loading 10 min at 30 C with crRNA (0.5 uM in Fig 3). Kd values are printed only in Fig 5A (not in the material); details: protein: recombinant; tags: N-terminal 6His on Cse1 (CasA); copies: 1;2;6;1;1; label: DNA 5'-32P; guide + blunt duplex
binder,measurement,setting,value
B1,binding result,[1],binds
same,binding result,Cascade- (crRNA-free …) [2]; guide + target strand,binds
B2,binding result,"Cascade- (crRNA-free …) [3]; label: DNA 5'-32P, guide + blunt duplex",binds
B3,binding result,Cascade- (crRNA-free …) [4],binds
same,binding result,[5],binds
B4,binding result,[6],binds
same,binding result,Cascade- (crRNA-free …) [2]; guide + blunt duplex,binds
AUAAACCGCUGUCUUUCGCUGCUGAGGGUGACGAUCCGCCGAGUU (ssRNA) [crRNA7 (-8/+5)],binding result,Cascade- (crRNA-free …) [3]; label: 5'-32P,binds
B5,binding result,Cascade- (crRNA-free …) [7],binds
